US20230322908A1 (AC IMMUNE, published 2023)
Where no end group is shown, it is not given here.

T1: Biotinylated TP-73 peptide (aa 181-190 of SEQ ID NO:1) (human, also: biotinylated (position not given here))
T1 construct: Immobilized on a streptavidin (SA) sensor chip
T1 peptide: KQSQDEPLRS

T2: TP-51 peptide (aa 352-414 of SEQ ID NO:1) (human)
T2 construct: Synthetic peptide (Pepscan)
T2 peptide: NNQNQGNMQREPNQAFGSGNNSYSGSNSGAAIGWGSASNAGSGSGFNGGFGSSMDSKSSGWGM


Experiments:
[1] = target: T3, recombinant human full-length TDP-43 (TAR DNA-binding protein 43), soluble (human, UniProt Q13148 1-414); assay: Luminex, FL TDP-43 on beads
T3 construct: Used on Luminex beads, coated on ELISA plates, and immobilized or injected in SPR; also called FL TDP-43; TDP-43 protein
T3 sequence (Q13148 whole entry): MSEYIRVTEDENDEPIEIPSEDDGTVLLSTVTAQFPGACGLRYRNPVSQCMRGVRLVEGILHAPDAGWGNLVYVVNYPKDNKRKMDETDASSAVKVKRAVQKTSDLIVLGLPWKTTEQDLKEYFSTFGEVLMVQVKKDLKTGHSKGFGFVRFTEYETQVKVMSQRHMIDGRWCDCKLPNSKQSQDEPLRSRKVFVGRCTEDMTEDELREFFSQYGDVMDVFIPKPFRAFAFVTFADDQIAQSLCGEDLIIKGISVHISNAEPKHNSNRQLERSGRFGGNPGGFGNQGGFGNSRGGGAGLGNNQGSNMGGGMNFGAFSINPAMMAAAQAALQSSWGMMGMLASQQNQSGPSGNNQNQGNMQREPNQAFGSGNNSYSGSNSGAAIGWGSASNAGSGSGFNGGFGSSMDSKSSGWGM
Procedure: Mice were euthanized and fusion with myeloma cells was performed using splenocytes from four individual mice. Screening for antibodies from the successfully fused hybridoma cell lines were performed as follows. Diluted (1:32) cell culture supernatants were analyzed using Luminex bead-based multiplex assay (Luminex, The Netherlands). Luminex beads were conjugated to FL TDP-43 and with capturing IgGs with anti-mouse IgG-Fc antibodies specific for the IgG1, IgG2a, IgG2b, IgG2c, and IgG3 subclasses (Jackson Immunoresearch, USA). Binding to beads conjugated to FL TDP-43 identified 386 hits derived from mice immunized with the FL TDP-43 liposomal vaccine.
Luminex assays with serial dilution of antibodies were performed as described before to determine half maximal effective concentration (EC50) of binding of antibodies to FL TDP-43. In summary, all tested antibodies bind to full length TDP-43 with high affinity.

[2] = target: T1, Biotinylated TP-73 peptide (aa 181-190 …); assay: SPR, biotinylated TP-73 on SA chip
Procedure: Binding avidity to soluble or aggregated FL TDP-43 was evaluated by determing the dissociation constants (KD) using surface plasmon resonance (SPR; Biacore T200, GE Healthcare Life Sciences). Recombinant human soluble or aggregated FL TDP-43 were immobilized on a CM5 Series S sensor chip (GE Healthcare Life Sciences) by amine coupling. Soluble TDP-43 was immobilized at a concentration of 5 µg/ml in 10 mM sodium acetate (pH 4.5) with a flow rate of 5 µl/min for 420 seconds resulting in an immobilization level of 150 RU. Aggregated TDP-43 was immobilized at a concentration of 50 µg/ml in 10 mM sodium acetate (pH 4.5) with a flow rate of 5 µl/min for 840 seconds resulting in an immobilization level of 110 RU. Biotinylated TP-73 peptide (aa 181-190 of SEQ ID NO:1) was immobilized on a Series S Sensor Chip SA (GE Healthcare Life Sciences) at a concentration of 5 µg/ml in PBS-P⁺ with a flow rate of 5 µl/min for 30 seconds resulting in an immobilization level of 400 RU. […] The antibodies were injected at a flow rate of 50 µl/min for 90 seconds contact time and 700 seconds dissociation phase followed by three regenerations with 10 mM glycine-HCl pH 1.7. […] Results obtained from binding kinetics were double-referenced using a blank flow cell and a buffer cycle and were evaluated with a global 1:1 fitting model with RI. […]

[3] = target: T3, recombinant human full-length TDP-43 …; assay: SPR, mAb captured, FL TDP-43 injected; mean
Procedure: Binding affinity to soluble FL TDP-43 was evaluated by determing the dissociation constants (KD) using surface plasmon resonance (SPR; Biacore T200, GE Healthcare Life Sciences). Goat-anti mouse capture antibody was immobilized on a CM5 Series S sensor chip (GE Healthcare Life Sciences) by amine coupling. Antibodies were captured at a concentration of 2-5 µg/ml in PBS-P⁺ (GE Healthcare Life Sciences) with a flow rate of 10 µl/min for 120 seconds resulting in a capture level of 350-1000 RU. […] Dissociation was recorded for 1 h followed by one regeneration with 10 mM glycine-HCl pH 1.7. Results obtained from binding kinetics were double-referenced using a blank flow cell and a buffer cycle and were evaluated with a global 1:1 fitting model with RI.

[4] = target: T3, recombinant human full-length TDP-43 …; assay: indirect ELISA, coated FL TDP-43
Procedure: Antibody binding to human FL TDP-43 was determined using an indirect ELISA. ELISA plate coating with 1 µg/ml human FL TDP-43 was performed overnight in carbonate buffer at 4° C. Plates were washed with 0.05% Tween-20/PBS and then blocked with 1% bovine serum albumin (BSA) in 0.05% Tween-20/PBS for 1 hour at 37° C. Antibodies purified from hybridoma supernatants were then added in a 3-fold serial dilution starting at 1 µg/ml, and incubated for 2 hours at 37° C. after which the plates were washed. An AP-conjugated anti-mouse IgG secondary antibody (Jackson Immunoresearch Laboratories, United Kingdom) was added at 1/1000 dilution in 0.05% Tween-20/PBS for 1 hour at 37° C. After the final wash, plates were incubated with pNPP (Sigma-Aldrich, Switzerland) phosphatase substrate solution, and read at 405 nm using an ELISA plate reader (Tecan, Switzerland).

[5] = target: T3, recombinant human full-length TDP-43 …; assay: SPR, immobilized soluble TDP-43
Procedure: (§1) Binding avidity to soluble or aggregated FL TDP-43 was evaluated by determing the dissociation constants (KD) using surface plasmon resonance (SPR; Biacore T200, GE Healthcare Life Sciences). Recombinant human soluble or aggregated FL TDP-43 were immobilized on a CM5 Series S sensor chip (GE Healthcare Life Sciences) by amine coupling. Soluble TDP-43 was immobilized at a concentration of 5 µg/ml in 10 mM sodium acetate (pH 4.5) with a flow rate of 5 µl/min for 420 seconds resulting in an immobilization level of 150 RU. Aggregated TDP-43 was immobilized at a concentration of 50 µg/ml in 10 mM sodium acetate (pH 4.5) with a flow rate of 5 µl/min for 840 seconds resulting in an immobilization level of 110 RU. Biotinylated TP-73 peptide (aa 181-190 of SEQ ID NO:1) was immobilized on a Series S Sensor Chip SA (GE Healthcare Life Sciences) at a concentration of 5 µg/ml in PBS-P⁺ with a flow rate of 5 µl/min for 30 seconds resulting in an immobilization level of 400 RU. […] The antibodies were injected at a flow rate of 50 µl/min for 90 seconds contact time and 700 seconds dissociation phase followed by three regenerations with 10 mM glycine-HCl pH 1.7. For the optimized SPR protocol the antibodies were diluted 3-fold starting from 300 nM and dilute down to 1.2 nM and injected for 300 seconds at 30 µl/min followed by 600 seconds dissociation. The surface was regenerated by one injection with 10 mM glycine-HCl pH 1.7. Results obtained from binding kinetics were double-referenced using a blank flow cell and a buffer cycle and were evaluated with a global 1:1 fitting model with RI. Avidities for 11 antibodies and two Fab fragments are depicted in Table 8. […] In addition, some antibodies show preferential binding to aggregated TDP-43 as compared with soluble TDP-43.

[6] = target: T4, recombinant human aggregated full-length TDP-43 (human, UniProt Q13148 1-414); assay: SPR, immobilized aggregated TDP-43
T4 construct: also called aggregated TDP-43; aggregated FL TDP-43
T4 sequence (Q13148 whole entry): as above
Procedure: as §1

[7] = target: T3, recombinant human full-length TDP-43 …; assay: SPR, immobilized soluble TDP-43; whole hybridoma antibody, first SPR protocol (90 s contact); soluble TDP-43 on the chip
[8] = target: T2, TP-51 peptide (aa 352-414 of SEQ ID …); assay: SPR, mAb captured, TP-51 injected
[9] = target: T2, TP-51 peptide (aa 352-414 of SEQ ID …); assay: SPR, mAb captured, TP-51 injected; mean

EC50 [1]	Kd [2]	Kd [3]	koff [3]	kon [3]	EC50 [4]	Kd [5]	koff [5]	kon [5]	Kd [6]	koff [6]	kon [6]	Kd [7]	Kd [8]	Kd [9]	koff [9]	kon [9]	Binder
< 0.01 nM	3.6 nM	0.249 nM	2.76e-05 s⁻¹	110000 M⁻¹ s⁻¹	0.014 µg/mL	5.28 nM	0.000838 s⁻¹	159000 M⁻¹ s⁻¹	0.88 nM	0.000131 s⁻¹	148000 M⁻¹ s⁻¹	–	–	–	–	–	ACI-7069-642D12-Ab1 (antibody, mouse IgG2b, V domains shown, Mouse IgG2b, kappa, from hybridoma; also called 642D12B4) VH: EVQLQQSGAELVKPGASVRLSCTASGFNIKDPYMHWVRQRPKQGLEWIGRIDPADGNTKYDPKFQGKATLTADTSSNVAYLHLSSLTSEDTAVYYCARFYGSSHWYFDVWGAGTTVTVSS VL: DIKMTQSPSSMYASLGERVTITCKASQDIKRYLSWYQQKPWKSPKILIYYATSLADGVPSRFSGTGSGQDYSLTISSLESDDVATYYCLQQGESPYTFGGGTKLEIK
< 0.01 nM	–	0.075 nM	3.45e-06 s⁻¹	43900 M⁻¹ s⁻¹	0.032 µg/mL	–	0.000319 s⁻¹	873 M⁻¹ s⁻¹	0.62 nM	5.01e-05 s⁻¹	82100 M⁻¹ s⁻¹	365 nM	1.18 to 1.32 nM	1.25 nM	0.000138 s⁻¹	110000 M⁻¹ s⁻¹	ACI-7069-633B12-Ab1 (antibody, mouse IgG2b, V domains shown, Mouse IgG2b, kappa, from hybridoma; also called 633B12C8) VH: EVQLQQSGPELVKPGASVKISCKTSGFTFTEYSMHWVKQSHGKSLEWIGGINPNNGGTSYNQKFKGKATLTVDKSSSTAYMELRSLTSEDSAVYYCARESWGQGTTLTVSS VL: not shown
